Measurements reported in patent publication US20230340132A1, “ANTI-ADENOSINE RECEPTOR (A2aR) ANTIBODIES” (NA Biotech Corp, priority 2020, published 2023).
Entries after “also recorded” stand apart in the source; their conditions may differ.

What was measured:
[1] = system: cynomolgus A2aR on cynomolgus T cells (PBMC); test: primary cell binding by flow cytometry, cynomolgus PBMC; conditions: rabbit Fc format, 2 μg/ml
Method: (§1) Human and cynomolgus PBMCs were purchased from Cytologics LLC (San Diego, CA) and iQ Biosciences (Berkeley, CA), respectively. Primary cell binding was determined using anti-human A2aR clone 3F6-9G5 at rabbit Fc format. In brief, 10^6 human and/or cynomolgus PBMCs in 100 μl FACS buffer were incubated with 3F6-9G5 (2 μg/ml) at 4° C. for 60 minutes. Cynomolgus cross-reactive anti-human CD3 (clone SP34, BD), anti-human CD8 (clone RPA-T8, Biolegend) and Zombie Green fixable Viability dye (Biolegend, Cat. 423111) were used according to manufacturer's instruction to define live immune cell subsets. After 3 washes with FACS buffer, cells were stained with PE-conjugated donkey anti-rabbit Fc detection antibody (1:200, Biolegend, Cat. 406421) for 30 minutes at 4° C. After 3 washes with FACS buffer, cells were analyzed on LSRII (Becton Dickinson). Data was analyzed using FlowJo (Becton Dickinson).

[2] = target: T1, human A2aR on human T cells (PBMC) (Homo sapiens, UniProt P29274); test: primary cell binding by flow cytometry, human PBMC; conditions: rabbit Fc format, 2 μg/ml
T1 construct: host or cells: human PBMC (T cells)
T1 sequence (P29274 whole entry): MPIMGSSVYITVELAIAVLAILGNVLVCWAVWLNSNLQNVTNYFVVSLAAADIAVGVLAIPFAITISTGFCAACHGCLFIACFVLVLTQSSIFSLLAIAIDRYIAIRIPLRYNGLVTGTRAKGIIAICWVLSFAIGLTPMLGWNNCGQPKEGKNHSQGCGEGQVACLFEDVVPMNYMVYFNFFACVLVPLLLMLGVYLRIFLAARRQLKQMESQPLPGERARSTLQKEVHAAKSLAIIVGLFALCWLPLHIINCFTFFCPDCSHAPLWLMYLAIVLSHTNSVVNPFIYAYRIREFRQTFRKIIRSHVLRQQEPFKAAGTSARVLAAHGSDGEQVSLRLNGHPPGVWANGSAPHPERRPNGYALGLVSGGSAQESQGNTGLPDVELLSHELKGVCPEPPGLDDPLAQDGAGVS
Method: as §1

[3] = target: T2, human adenosine receptor A2B (human, UniProt P29275 1-332); test: flow cytometry on HEK293T cells stably expressing human A2bR
T2 construct: whole, on cells; the tag is not described; also called A2bR; human A2bR
T2 sequence (looked up): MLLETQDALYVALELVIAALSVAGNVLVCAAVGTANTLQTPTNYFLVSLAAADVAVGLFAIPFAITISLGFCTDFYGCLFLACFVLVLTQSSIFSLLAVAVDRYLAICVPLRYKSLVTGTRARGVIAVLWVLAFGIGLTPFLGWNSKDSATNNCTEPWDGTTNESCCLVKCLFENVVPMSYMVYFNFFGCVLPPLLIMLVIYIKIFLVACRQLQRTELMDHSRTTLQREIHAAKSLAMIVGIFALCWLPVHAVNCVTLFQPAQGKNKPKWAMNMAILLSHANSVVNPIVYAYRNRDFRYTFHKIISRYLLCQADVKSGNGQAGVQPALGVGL

cynomolgus A2aR on cynomolgus T cells (PBMC), sequence (as listed by the source): as the sequence (P29274 whole entry) above, with M1V, S263N, A371T, G379S, D407G counted along it

Row | Molecule | binding to cynomolgus T cells (CD4+ and CD8+) of PBMC (FIG. 6) [1] | binding to human T cells (CD4+ and CD8+) of PBMC (FIG. 6) [2] | binding result [3]
1 | 3F6-9G5: anti-human A2aR monoclonal antibody from mouse hybridoma clone; HCVR SEQ ID NO: 36, LCVR SEQ ID NO: 42 (antibody, V domains shown) VH: QVQLQQPGTELVKPGAPVRLSCKASGFAFTSYWMNWVRQRPGRGLEWIGRIDPSDSEAHYHHKFWGKATLTVDKSSSTVYIQLNGLTSEDSAVYYCLRSLYGKGDYWGHGTTLTVSS VL: DVLMTQTPLSLSVRLGDQASISCRSSQSLVHRNGNTYLEWYLQRPGQSPKLLIYKVSNRFSGVPDRFSGSGSGTDFTLKISRVEAEDLGVYYCYQGSHVPLTFGSGTKLEIK | cross-reacted with cynomolgus T cells; also recorded: binds | bound to a small subset of human T cells; also recorded: binds | 
2 | anti-human A2aR monoclonal antibody 1B5-3D7 (antibody, V domains shown, Tested as whole mouse IgG2a / kappa, purified from hybridoma supernatant or made recombinantly in Expi293 cells; also called 1B-3D7) VH: QVQLQQPGTELVKPGAPVKLSCKTSGFTFTRFWMNWVRQRPGRGLEWIGRIDPYDSETQYNHKFWDRATLTVDKSSSTVYIQLSSLTSEDSAVYYCGRSLYGKGDYWGQGTTLTVSS VL: DVLMTQSPLSLPVSLGDQASISCRSSQSIVHSNGNTYLEWYLQRPGQSPKLLIYKVSNRFSGVPDRFSGSGSGTYFTLRISRVEAEDLGIYYCFQGSHVPLTFGSGTTLELK |  |  | no binding (tested: 2, 10 and 50 nM tested)
